Data on ten molecules can be found in patent US20260116958A1 (University of California, published 2026).

Test [1] concerns the target inactive BoNT/G (BoNT/Gi) (Clostridium botulinum) (UniProt Q60393). The experiment in a line: FACS, scFv on yeast. In general terms: In flow cytometry, cells or beads pass a laser one at a time.
Test [2] has the same target. Kind of test: scFv on yeast surface.
Test [3] has the same target. Kind of test: flow cytometry, scFv on yeast.
Test [4] concerns the target T1, active BoNT/G holotoxin (Clostridium botulinum, UniProt Q60393 2-1297).
T1 sequence: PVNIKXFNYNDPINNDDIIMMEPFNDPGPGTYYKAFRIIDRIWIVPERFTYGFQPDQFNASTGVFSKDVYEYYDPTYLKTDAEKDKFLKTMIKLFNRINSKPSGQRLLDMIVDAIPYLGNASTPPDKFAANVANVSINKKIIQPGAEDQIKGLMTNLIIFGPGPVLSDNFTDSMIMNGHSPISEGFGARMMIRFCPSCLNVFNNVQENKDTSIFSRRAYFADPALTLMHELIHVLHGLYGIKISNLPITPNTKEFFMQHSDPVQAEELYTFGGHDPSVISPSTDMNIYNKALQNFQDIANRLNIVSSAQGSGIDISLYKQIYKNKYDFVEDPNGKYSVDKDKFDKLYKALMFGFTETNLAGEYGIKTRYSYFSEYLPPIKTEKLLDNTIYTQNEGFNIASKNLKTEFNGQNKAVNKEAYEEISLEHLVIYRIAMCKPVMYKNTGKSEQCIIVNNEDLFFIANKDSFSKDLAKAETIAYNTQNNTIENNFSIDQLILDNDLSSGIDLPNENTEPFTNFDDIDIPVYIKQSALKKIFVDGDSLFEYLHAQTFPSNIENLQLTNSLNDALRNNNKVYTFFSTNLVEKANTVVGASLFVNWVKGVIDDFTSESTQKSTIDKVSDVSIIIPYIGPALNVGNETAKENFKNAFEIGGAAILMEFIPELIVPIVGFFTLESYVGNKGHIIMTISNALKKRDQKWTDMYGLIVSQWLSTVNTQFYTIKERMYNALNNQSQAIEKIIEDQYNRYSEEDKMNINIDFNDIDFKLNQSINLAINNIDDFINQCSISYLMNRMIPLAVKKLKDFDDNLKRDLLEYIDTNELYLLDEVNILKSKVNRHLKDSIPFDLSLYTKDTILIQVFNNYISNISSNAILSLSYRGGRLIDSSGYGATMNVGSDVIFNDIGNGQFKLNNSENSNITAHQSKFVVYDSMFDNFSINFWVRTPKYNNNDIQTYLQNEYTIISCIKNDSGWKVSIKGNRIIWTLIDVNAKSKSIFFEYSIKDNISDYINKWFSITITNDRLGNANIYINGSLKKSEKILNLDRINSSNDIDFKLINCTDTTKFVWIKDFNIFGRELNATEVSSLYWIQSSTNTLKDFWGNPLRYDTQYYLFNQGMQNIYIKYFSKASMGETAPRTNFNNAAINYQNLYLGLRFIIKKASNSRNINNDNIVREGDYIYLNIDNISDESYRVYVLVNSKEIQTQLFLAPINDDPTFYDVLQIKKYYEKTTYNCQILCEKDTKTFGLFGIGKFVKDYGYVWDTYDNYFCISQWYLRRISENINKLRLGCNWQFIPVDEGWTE
The experiment in a line: KinExA, IgG. On the technique in general: A kinetic exclusion assay measures how much of one partner remains free in solution.

For test [5], the target named is T1, active BoNT/G holotoxin. The experiment in a line: KinExA, IgG. This is another data set of the same source.
The target of test [6] is inactive BoNT/G (BoNT/Gi) (Clostridium botulinum) (UniProt Q60393). The experiment in a line: titration on yeast-displayed scFv, flow cytometry, fit y = m1 + m2*M0/(m0+m3).
For test [7], the target named is T2, inactive BoNT/G (BoNT/Gi) (Clostridium botulinum, UniProt Q60393 1-1297).
T2 sequence: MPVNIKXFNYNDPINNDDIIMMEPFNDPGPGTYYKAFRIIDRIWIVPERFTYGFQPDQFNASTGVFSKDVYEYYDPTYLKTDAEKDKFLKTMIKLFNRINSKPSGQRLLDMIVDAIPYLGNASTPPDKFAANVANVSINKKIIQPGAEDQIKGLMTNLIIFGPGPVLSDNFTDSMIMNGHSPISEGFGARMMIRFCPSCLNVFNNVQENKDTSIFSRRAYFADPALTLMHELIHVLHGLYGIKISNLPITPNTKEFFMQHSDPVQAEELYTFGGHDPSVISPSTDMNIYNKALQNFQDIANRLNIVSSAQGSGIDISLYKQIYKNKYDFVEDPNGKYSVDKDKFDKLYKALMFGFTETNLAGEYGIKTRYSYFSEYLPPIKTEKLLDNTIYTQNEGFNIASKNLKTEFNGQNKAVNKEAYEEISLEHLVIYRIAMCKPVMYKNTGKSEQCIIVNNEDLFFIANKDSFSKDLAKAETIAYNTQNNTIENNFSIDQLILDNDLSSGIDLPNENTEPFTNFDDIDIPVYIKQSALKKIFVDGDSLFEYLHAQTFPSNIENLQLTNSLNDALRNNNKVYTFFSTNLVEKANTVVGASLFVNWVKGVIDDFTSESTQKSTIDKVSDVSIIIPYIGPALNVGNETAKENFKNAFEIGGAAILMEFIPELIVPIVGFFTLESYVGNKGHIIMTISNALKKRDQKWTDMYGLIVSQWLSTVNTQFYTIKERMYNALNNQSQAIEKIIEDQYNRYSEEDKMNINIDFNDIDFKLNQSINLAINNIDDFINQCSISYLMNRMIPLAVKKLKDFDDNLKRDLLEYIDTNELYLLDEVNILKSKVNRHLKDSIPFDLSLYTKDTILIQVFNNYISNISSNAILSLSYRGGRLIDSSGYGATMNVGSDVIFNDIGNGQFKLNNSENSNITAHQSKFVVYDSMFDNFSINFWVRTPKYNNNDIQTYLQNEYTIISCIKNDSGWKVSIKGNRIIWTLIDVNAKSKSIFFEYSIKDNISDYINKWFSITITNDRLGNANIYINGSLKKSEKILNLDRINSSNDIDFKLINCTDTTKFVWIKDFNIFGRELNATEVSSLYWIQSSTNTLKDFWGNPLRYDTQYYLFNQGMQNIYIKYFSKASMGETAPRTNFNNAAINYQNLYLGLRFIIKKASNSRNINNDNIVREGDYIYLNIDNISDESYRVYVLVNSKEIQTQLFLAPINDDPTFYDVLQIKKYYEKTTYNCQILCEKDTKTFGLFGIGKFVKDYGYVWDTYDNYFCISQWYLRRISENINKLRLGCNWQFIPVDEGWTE
The test is described as above.

The target of test [8] is T2, inactive BoNT/G (BoNT/Gi). The experiment in a line: FACS, scFv on yeast.

Where two headings read alike, the source gives them in different places.

B1: hu6G6 scFv (scFv)
scFv: QVQLVQSGAEVKKPGASVKLSCKASGFNIKDTYMHWVRQAPGQGLEWIGRIDPANGNTKYDPKFQGRATITADTSINTAYLELSRLRSDDTAVYYCASGPNYYGTTWFAYWGQGTTVTVSSVDLKSGGSTSGSGKPGSGEGSSGSAREIVLTQSPSTLSASVGDRVTITCRASHGISNYLAWYQQKPGRAPKLLIYKASTLHIGVPSRFSGSGSGTEFALTISSLQPDDFSTYYCQQYNSYLPHTFGQGTRLEIK
Consider B1, for which the equilibrium dissociation constant (Kd) is 23 nM in test [1], 5 nM in test [2] and 23.2 nM in test [3]. Moreover, the fold improvement over parental 6G6 in test [2] is > 3 fold.

B2: Hu6G10 IgG (antibody, V domains shown)
VH: QVQLVQSGAEVKKPGATVKISCKASGYSFTGYFMHWVRQAPGKGLEWIGRINPYNGDIIYNQNFKDRATLTVDKSTSTAYMELSSLRSEDTAVYYCASLFGLYYFDYWGQGTTLTVSS
VL: DVVMTQSPSSVSASVGDRVTITCRASQRISNHLNWYQQKPGKAPKRLIYAASSLESGVPSRFSGSGSGTEFTLTISSLQPEDFATYFCLQHNSYPYTFGQGTKVEIKR
In the case of B2, the “fold improvement over 6G10 (IgG KD)” value with active BoNT/G holotoxin [4] is 39 fold. In addition, in the test with active BoNT/G holotoxin [5], binding was characterised by a dissociation constant (Kd) of 0.00836 nM.

B3: hu6G9B10 scFv (scFv)
scFv: QVQLVQSGAEVKKPGASVKMSCKASGYTFTSYWMHWVRQAPGQGLEWIGYINPSTGYTEYNQKFKDRATLTADKSTSTAYMELRSLRSDDTAVYYCARGGNYVDYWGQGTTLTVSSVDLKSGGSTSDSGKPGSGEGSSGSARDIQMTQSPSTLSASVGERVTITCRASQDISSWLAWYQQKPGKAPKRLIYAVSTLQTGVPSRFSGSGSGTDLTLTINSLQPEDFATYYCQDLNSYPLTFGGGTKVEVK
B3: in test [3], the Kd worked out at 2.35 nM and the fold improvement in affinity over hu6G9 WT was found to be 9 fold.

B4: hu6G6.1 IgG (antibody, V domains shown)
VH: QVQLVQSGAEVKKPGASVKLSCKASGFNIKDTYMHWVRQAPGQGLEWIGRIDPENGNTKYDPKFQGRATITAYKSINTAYLELSRLRSDDTAVYYCASGPNYYGTTWFAYWGQGTTVTVSS
VL: EIVLTQSPSTLSASVGDRVTITCRASHGISNYLAWYQQKPGRAPKLLIYKASTLHIGVPSRFSGSGSGTEFALTISSLQPDDFSTYYCQQYNSYLPHTFGQGTRLEIKR
In the case of B4, in the test with active BoNT/G holotoxin [4], the Kd was 0.476 nM and the “fold improvement over hu6G6” value was 18 fold. In the test with active BoNT/G holotoxin [5], this molecule returned an equilibrium dissociation constant (Kd) of 0.47 nM.

B5: hu6G7.1A5 (scFv, V domains shown)
VH: QVQLVQSGAEVKKPGASVKVSCKASDYSFTDYNIYWVRQAPGQGLEWIGYIDPYNGGTSYNQKFKGRATLTVDKSISTAYMELSRLRSDDTAVYYCALYGYDPDYIDYWGPGTTLTVSS
VL: DIVLTQSPASMAASPGQRVTITCSASSSVSYLHWFQQKPGQSPKLMIYGTSNLASGVPVRFSGSGSGTSYSLTINPMEAEDTATYYCQQRSSYPYTFGQGTKLEIK
For the molecule B5, the Kd in test [6] was determined as 4.91 nM.

B6: Hu6G7.1 scFv (scFv, V domains shown)
VH: QVQLVQSGAEVKKPGASVKVSCKASDYSFTDYNIYWVRQTPGQGLEWIGYIDPYNGGTSYNQKFKGRATLTVDKSISTAYMELSRLRSDDTAVYYCALYGYDPDYIDYWGQGTTLTVSS
VL: DIVLTQSPASMAVSPGQRVTITCSASSSVSYLHWFQQKPGQSPKLWIYSTSNLASGVPARFSGSGSGTDYTLTINPMEAEDTATYYCQQRSSYPYTFGQGTKLEIKR
Consider B6, for which the equilibrium dissociation constant (Kd) in test [7] and in test [8] was 3.2 nM throughout.

B7: hu6G7.1D6 (scFv, V domains shown)
VH: QVQPVQSGAEVKKPGASVKVSCKASDYSFTDYNIYWVRQAPGQGLEWIGYIDPYNGGTSYNQKYRGRATLTVDKSINTAYMELSRLRSDDTAVYYCALYGYDPDYIEYWGQGTTLTVSS
VL: DIVLTQSPASMAASPGQRVTITCSASSSVSYLHWFQQKPGQSPKLWIYSTSNLASGVPARFSGSGSGTDYTLTINPMEAEDTATYYCQQRSSYPYTFGQGTKLEIK
As for B7, the Kd in test [6] is 5.03 nM.

B8: 6G9A2 (scFv, V domains shown)
VH: QVQLVQSGAEVKKPGASVKMSCKASGYTFTSYWMHWVRQAPGQGLEWIGYINPSTGYTEYNQKFKDRATLTADKSTSTAYMELRSLRSDDTAVYYCARGGNYVDYWGQGTTLTVSS
VL: DVVMTQSPSFLSASVGDRVTVTCRASQSIGSWLAWYQQKPGKAPKLLIYAASSLQSGVPSRFSASGSGTDFTLTISSLQPDDFATYFCHRLNSYPLTFGGGTKVEIK
For B8, the dissociation constant (Kd) in test [6] turned out to be 6.2 nM.

B9: 6G9B9 (scFv, V domains shown)
VH: QVQLVQSGAEVKKPGASVKMSCKASGYTFTSYWMHWVRQAPGQGLEWIGYINPSTGYTEYNQKFKDRATLTADKSTSTAYMELRSLRSDDTAVYYCARGGNYVDYWGQGTTLTVSS
VL: DIQMTQSPSTLSASVGERVTITCRASQGISSWLAWYQQKPGKAPKRLIYAVSTLQTGVPSRFSGSGSGTDLTLTINSLQPEDFATYYCQHLNSYPLTFGGGTKVEIK
Turning to B9, in test [6], the Kd worked out at 3.78 nM.

B10: Hu6G11.3 scFv (scFv, V domains shown)
VH: QVQLVQSGAEVAKPGASVKMSCKASGYTFTSYWMHWVRQAPGQGLEWIGYINPSTGYTEYNQKFKDRATLTADKSTSTAYMELSSLRSEDTAVYYCARGYFSFAYWGQGTLVTVSS
VL: EIVLTQSPSTLSASIGDRVTITCRASEGIYHWLAWYQQKPGKAPKLLIYKASSLASGAPSRFSGSGSGTDFSLTISSLQPEDSATYFCQQAHSFPPTFGGGTKVDIKR
The molecule B10 gave a dissociation constant Kd in test [8] of 0.32 nM.

Usually Kd stands for a measure of binding affinity in units of concentration.
